Target: IgG
Experiment: not stated; equilibrium affinity of recombinant CHO FcγRIIIa for IgG, before and after enzymatic desialylation; method and conditions only in the supplement (Fig. S16)

- fold increase in equilibrium affinity against the untreated FcγRIIIa: 2 fold
Substance: enzymatically desialylated recombinant FcγRIIIa expressed in CHO cells (from UniProt P08637 17-254) (receptor)

From publication PMC6398215
